Changes are numbered by the printed parent chain.
B1: 511-min (scFv)
scFv: EIVMTQSPSTLSASVGDRVIITCQASQSINIWLSWYQQKPGKAPKLLIYRASTLASGVPSRFSGSGSGAEFTLTISSLQPDDFATYYCQANYAYSAGYGAAFGQGTKLTVLGGGGGSGGGGSGGGGSGGGGSEVQLVESGGGLVQPGGSLRLSCAASGFSLNTYYMNWVRQAPGKGLEWVSIIAPDDTTYYASWAKSRFTISRDNSKNTLYLQMNSLRAEDTAVYYCAKSGDTTAWGADIWGQGTLVTVSS
notes: NH2-VL-linker-VH-COOH; Min graft on FW1.4; also called 801
B2: 534-min C-His (scFv, not shown: small tags and cut ends)
scFv: EIVMTQSPSTLSASVGDRVIITCQASQSINWLSWYQQKPGKAPKLLIYKESTLASGVPSRFSGSGSGAEFTLTISSLQPDDFATYYCQNNYDSGNNGFPFGQGTKLTVLGGGGGSGGGGSGGGGSGGGGSEVQLVESGGGLVQPGGSLRLSCAASGFSLSYYYMSWVRQAPGKGLEWVSIIGPGDYTDYASWAKGRFTISRDNSKNTLYLQMNSLRAEDTAVYYCAKGDDNSGWGEDIWGQGTLVTVSS
notes: Min graft with C-His in its name; also called 807
B3: 509-maxII (scFv)
chain: EIVMTQSPSTLSASVGDRVIITCQASQNIRIWLSWYQQKPGKAPKLLIYKASTLESGVPSRFSGSGSGTEFTLTISSLQPDDFATYYCQNNAHYSTNGGTFGQGTKLTVLGGGGGSGGGGSGGGGSGGGGSEVQLVESGGGLVQPGGSLRLSCTASGFSLSSYYMSWVRQAPGKGLEWVGILDYVGDTDYASWAKGRFTISKDASKNTVYLQMNSLRAEDTAVYYCARTDDSRGWGLNIWGQGTLVTVSS
B4: 567-min (scFv)
chain: EIVMTQSPSTLSASVGDRVIITCQADQSIYIWLSWYQQKPGKAPKLLIYKASTLESGVPSRFSGSGSGAEFTLTISSLQPDDFATYYCQNNAHYSTNGGTFGQGTKLTVLGGGGGSGGGGSGGGGSGGGGSEVQLVESGGGLVQPGGSLRLSCAASGFSLSDYYMCWVRQAPGKGLEWVSCLDYFGSTDDASWAKGRFTISRDNSKNTLYLQMNSLRAEDTAVYYCAKTDDSRGWGLNIWGQGTLVTVSS
B5: 578-min (scFv)
scFv: EIVMTQSPSTLSASVGDRVIITCQASEIIHSWLAWYQQKPGKAPKLLIYLASTLASGVPSRFSGSGSGAEFTLTISSLQPDDFATYYCQNVYLASTNGANFGQGTKLTVLGGGGGSGGGGSGGGGSGGGGSEVQLVESGGGLVQPGGSLRLSCAASGFSLTDYYYMTWVRQAPGKGLEWVSFIDPDDDPYYATWAKGRFTISRDNSKNTLYLQMNSLRAEDTAVYYCAKGDHNSGWGLDIWGQGTLVTVSS
notes: NH2-VL-linker-VH-COOH; Min graft on FW1.4; also called 820
B6: 509-min (scFv)
scFv: B4 chain with D26S, S28N, Y30R, D162S, F185V, S187D, D190Y
notes: NH2-VL-linker-VH-COOH; Min graft on FW1.4; also called 854

Target: T1, recombinant human VEGF165 (PeproTech EC Ltd.) (human, UniProt P15692-4 27-191)
T1 construct: Amine-coupled to a CM4 chip; also called hVEGF165
Assay: SPR, BIAcore T100, hVEGF165 amine-coupled on CM4 chip, scFv as analyte
Procedure: The Biacore-binding ability of scFvs was tested and the binding affinity was measured using the exemplary surface plasmon resonance method with BIAcore™-T100. […] For the surface plasmon resonance experiment, carboxymethylated dextran biosensor chips (CM4, GE Healthcare) were activated with N-ethyl-N′-(3-dimethylaminopropyl) carbodiimide hydrochloride and N-hydroxysuccinimide according to the supplier's instructions. […] The 4th flow cell of each chip was treated similarly except no proteins were immobilized prior to blocking, and the flow cell was used as in-line reference. […] The apparent dissociation rate constant (kd), the apparent association rate constant (kₐ) and the apparent dissociation equilibrium constant (KD) were calculated using one-to-one Langmuir binding model with BIAcore T100 evaluation Software version 1.1.

T1 sequence (P15692 other isoform, or with tags, fused parts or gaps limits assumed, form in doubt): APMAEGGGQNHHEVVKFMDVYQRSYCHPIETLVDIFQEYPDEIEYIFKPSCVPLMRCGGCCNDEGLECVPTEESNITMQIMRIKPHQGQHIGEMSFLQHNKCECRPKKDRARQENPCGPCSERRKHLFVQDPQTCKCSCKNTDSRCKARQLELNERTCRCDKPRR

Kd [nM] | koff [s⁻¹] | kon [M⁻¹ s⁻¹] | Binder
2.53 | 0.00128 | 505000 | B1
34.1 | 0.00921 | 271000 | B2
3.37 | 0.00282 | 838000 | B3

Target: VEGF (as used in the VEGFR competition ELISA)
Assay: competition ELISA, VEGF binding to hVEGFR1; ratio to reference Luc

Chain of VEGF (as used in the VEGFR competition ELISA) (P15692 whole entry): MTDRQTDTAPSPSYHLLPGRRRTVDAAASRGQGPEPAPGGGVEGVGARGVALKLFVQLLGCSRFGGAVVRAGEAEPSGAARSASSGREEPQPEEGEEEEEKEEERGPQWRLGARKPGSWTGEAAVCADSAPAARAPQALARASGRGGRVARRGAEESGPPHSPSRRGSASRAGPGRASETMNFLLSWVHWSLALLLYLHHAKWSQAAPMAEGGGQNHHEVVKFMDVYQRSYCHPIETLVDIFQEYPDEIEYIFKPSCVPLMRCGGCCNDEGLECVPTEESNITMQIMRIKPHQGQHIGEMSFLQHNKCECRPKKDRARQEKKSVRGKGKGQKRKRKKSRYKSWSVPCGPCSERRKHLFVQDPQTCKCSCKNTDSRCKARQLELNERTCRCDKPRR

Rel. activity hVEGR1 comp. ELISA (EC50Luc [nM]/EC50test [nM]) [ratio] | Binder
0.7 | B1
57 | B4
4.8 | B5
0.09 | B3
2.9 | B6

Reference: patent US20180127493A1 (ESBATECH AN ALCON BIOMEDICAL RESEARCH UNIT, published 2018)
